{"source": "patent US20070098715A1", "biological_target": "Ten-M2 endogenously expressed on human cancer cell lines (SNB-19 and others) (human) (UniProt Q9NT68)", "assay": "flow cytometry on SNB-19 cells at 4° C., Alexa647 anti-human IgG secondary", "data": [{"substance": "isotype control Ab (antibody)", "values": [{"measurement": "Total Bound Fluorescence", "value": 2.2}]}]}
